The test deals with endogenous MDM2 of SH-SY5Y cells (human (endogenous in SH-SY5Y)) (UniProt Q00987). Description: AlphaScreen or HTRF; AlphaLISA of extracts of SH-SY5Y cells (MG132), endogenous proteins; D1V2Z-CaptSure acceptor beads and biotinylated HT7 on donor beads; background from Tau-KO SH-SY5Y cells.
Chain of endogenous MDM2 of SH-SY5Y cells (human (endogenous in SH-SY5Y)) (Q00987 whole entry): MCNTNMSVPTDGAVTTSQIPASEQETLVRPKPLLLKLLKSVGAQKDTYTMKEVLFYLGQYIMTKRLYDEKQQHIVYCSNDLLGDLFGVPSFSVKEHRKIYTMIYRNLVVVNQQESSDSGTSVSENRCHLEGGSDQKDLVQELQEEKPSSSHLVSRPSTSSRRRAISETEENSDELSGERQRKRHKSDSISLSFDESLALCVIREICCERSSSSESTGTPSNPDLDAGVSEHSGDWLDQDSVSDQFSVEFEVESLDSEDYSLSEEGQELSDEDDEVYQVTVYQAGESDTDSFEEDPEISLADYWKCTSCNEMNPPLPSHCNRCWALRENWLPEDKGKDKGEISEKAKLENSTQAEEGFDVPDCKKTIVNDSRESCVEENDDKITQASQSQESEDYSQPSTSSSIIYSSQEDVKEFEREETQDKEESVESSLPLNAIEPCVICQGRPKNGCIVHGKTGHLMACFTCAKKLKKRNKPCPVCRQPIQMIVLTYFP

Substance “endogenous Tau of SH-SY5Y cells (from UniProt P10636 1-758) (natural protein)” had an AlphaLISA signal, fold over background of Tau-KO SH-SY5Y cells of 2.7 fold.

These data come from article PMC10290082.
